The values that follow come from PMC6379431 (Nature Communications, 2019).

This data set concerns the molecule itself. The data set can be described thus: crystal structure.

B1: mCldn3cryst P134G (domain or fragment)
chain: MSMGLEITGTSLAVLGWLCTIVCCALPMWRVSAFIGSSIITAQITWEGLWMNCVVQSTGQMQCKMYDSLLALPQDLQAARALIVVSILLAAFGLLVALVGAQATNAVQDETAKAKITIVAGVLFLLAALLTLVGVSWSANTIIRDFYNPLVPEAQKREMGAGLYVGWAAAALQLLGGALLAA
notes: also called P134G mutant; source: Sf9 insect cells (baculovirus), purified (as mCldn3cryst)
With B1, the binding result was “binds”.

B2: mCldn3cryst P134A (domain or fragment)
chain: MSMGLEITGTSLAVLGWLCTIVCCALPMWRVSAFIGSSIITAQITWEGLWMNCVVQSTGQMQCKMYDSLLALPQDLQAARALIVVSILLAAFGLLVALVGAQATNAVQDETAKAKITIVAGVLFLLAALLTLVAVSWSANTIIRDFYNPLVPEAQKREMGAGLYVGWAAAALQLLGGALLAA
notes: also called P134A mutant; source: Sf9 insect cells (baculovirus), purified (as mCldn3cryst)
Regarding B2, the binding result is on record as “binds”.
